Reference: US20170137511A1 (CALYPSO BIOTECH, published 2017)

How the values were obtained:
[1] = target: recombinant human IL-15 (Prospec cat no. CYT230) (human, UniProt P40933 49-162); test: ELISA, plate-bound human IL-15; printed as BC50 (half-maximal binding concentration)
Method: (§1) Maxisorp plates were coated with recombinant human IL-15 (Prospec cat no. CYT230) or Rhesus macaque IL-15 (MyBiosource cat. no. MBS948894) at 100 ng/well in carbonate coating buffer for 2 hours at 37° C. Since published sequences of Rhesus macaque and Cynomolgus monkey IL-15 are identical, such recombinant IL-15 protein was referred to as Macaque Monkey IL-15. Tested human IL-15 recombinant protein has a sequence identical to that provided in SEQ ID NO: 1 but with an additional methionine at the N-terminal position as usually done for expressing recombinant proteins in E. Coli. Tested recombinant Macaque Monkey IL-15 was produced in yeast and has a sequence identical to that provided in SEQ ID NO: 4 but with an additional N-terminal His tag.
(§2) The plate was then blocked with 2% normal goat serum for 30 min at 37° C. and washed 6 times with PBS-Tween (0.05% Tween-20 in PBS, v/v). Test antibodies were added to the plate in triplicate at various dilutions in PBS-Tween and the plate was incubated with gentle rocking at room temperature for 2 hours. The plate was then washed 6 times with PBS-Tween and an appropriate dilution of goat anti-human IgG antibody (Millipore cat. no. AP309P) conjugated to horseradish peroxidase (HRP) was added to the plate and left rocking at room temperature for 1 hour. The plate was then washed 6 times with PBS-Tween and incubated with TMB substrate. The reaction was stopped by the addition of 1M H₂SO₄ and read at 450 nm. Dose response curves of absorbance versus concentration were plotted and analyzed to determine half-maximal binding concentrations (BC₅₀) using the Graphpad Prism software. BC₅₀ values expressed as molarity were extrapolated from concentration in ng/ml using a 150 kDa molecular weight value for all antibodies.

[2] = target: T1, recombinant Macaque Monkey IL-15 (MyBiosource cat. no. MBS948894) (Rhesus macaque / Cynomolgus monkey, UniProt P40221 49-162 (Chlorocebus aethiops entry)); test: ELISA, plate-bound Macaque Monkey IL-15; printed as BC50 (half-maximal binding concentration)
T1 construct: Produced in yeast; also called Rhesus macaque IL-15; recombinant monkey IL-15; not shown: additional N-terminal His tag
Method: as §1, §2

T1 sequence (P40221 49-162): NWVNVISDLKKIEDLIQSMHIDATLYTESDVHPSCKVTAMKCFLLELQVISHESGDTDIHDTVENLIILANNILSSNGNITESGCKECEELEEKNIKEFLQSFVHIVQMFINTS
Chain of recombinant human IL-15 (Prospec cat no. CYT230) (P40933 other isoform, or with tags, fused parts or gaps): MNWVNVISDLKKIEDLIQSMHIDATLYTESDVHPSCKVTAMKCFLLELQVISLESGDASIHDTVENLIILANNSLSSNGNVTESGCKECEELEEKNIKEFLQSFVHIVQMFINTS

EC50 [1] [nM]	EC50 [2] [nM]	Binder
2.62	–	huB-E29-3 (antibody, human IgG1, kappa, V domains shown, Humanized B-E29 variant; human IgG1 (G1m3) / kappa (Km3), produced in CHO cells; also called huVH3/huVL1) VH: EVRLMASGGGLVQPGGSLRLSCAASEFTFSNYAMSWVRQAPGKGLEWVSTISRGGDYTYYPDSVKGRFTISRDNSKNTLYLQMNSLRAEDTAVYYCARRVSMITGGWAMDYWGQGTLVTVSS VL: DVVMTQSPLSLPVTLGQPASISCRSSQSIVDITGNTYLEWYQQRPGQSPRLLIYKVFNRFSGVPDRFSGSGSGTDFTLKISRVEAEDVGVYYCFQDSFVPYTFGQGTKLEIKR
0.813	0.347	huB-E29-14 (antibody, human IgG1, kappa, V domains shown, Humanized B-E29 variant; human IgG1 (G1m3) / kappa (Km3), produced in CHO cells; also called huVH12/huVL1) VH: EVRLMASGGGLVQPGGSLRLSCAASEFTFSNYAMSWVRQAPGKGLEWVATISRGGDYTYYPDSVKGRFTISRDNSKNTLYLQMNSLRAEDTAVYYCARRVSMITGGWAFDYWGQGTLVTVSS VL: DVVMTQSPLSLPVTLGQPASISCRSSQSIVDITGNTYLEWYQQRPGQSPRLLIYKVFNRFSGVPDRFSGSGSGTDFTLKISRVEAEDVGVYYCFQDSFVPYTFGQGTKLEIKR
2.53	–	huB-E29-15 (antibody, human IgG1, kappa, V domains shown, Humanized B-E29 variant; human IgG1 (G1m3) / kappa (Km3), produced in CHO cells; also called huVH13/huVL1) VH: EVRLMASGGGLVQPGGSLRLSCAASEFTFSNYAMSWVRQAPGKGLEWVATISRGGDYTYYPDSVKGRFTISRDNSKNTLYLQMNSLRAEDTAVYYCARRVSMITGGWAIDYWGQGTLVTVSS VL: DVVMTQSPLSLPVTLGQPASISCRSSQSIVDITGNTYLEWYQQRPGQSPRLLIYKVFNRFSGVPDRFSGSGSGTDFTLKISRVEAEDVGVYYCFQDSFVPYTFGQGTKLEIKR
1.84	–	huB-E29-6 (antibody, human IgG1, kappa, V domains shown, Humanized B-E29 variant; human IgG1 (G1m3) / kappa (Km3), produced in CHO cells; also called huVH4/huVL1) VH: EVRLMASGGGLVQPGGSLRLSCAASEFTFSNYAMSWVRQAPGKGLEWVATISRGGDYTYYPDSVKGRFTISRDNSKNTLYLQMNSLRAEDTAVYYCARRVSLITGGWAMDYWGQGTLVTVSS VL: DVVMTQSPLSLPVTLGQPASISCRSSQSIVDITGNTYLEWYQQRPGQSPRLLIYKVFNRFSGVPDRFSGSGSGTDFTLKISRVEAEDVGVYYCFQDSFVPYTFGQGTKLEIKR
0.98	–	huB-E29-11 (antibody, human IgG1, kappa, V domains shown, Humanized B-E29 variant; human IgG1 (G1m3) / kappa (Km3), produced in CHO cells; also called huVH9/huVL1) VH: EVRLMASGGGLVQPGGSLRLSCAASEFTFSNYAMSWVRQAPGKGLEWVATISRGGDYTYYPDTVKGRFTISRDNSKNTLYLQMNSLRAEDTAVYYCARRVSMITGGFAMDYWGQGTLVTVSS VL: DVVMTQSPLSLPVTLGQPASISCRSSQSIVDITGNTYLEWYQQRPGQSPRLLIYKVFNRFSGVPDRFSGSGSGTDFTLKISRVEAEDVGVYYCFQDSFVPYTFGQGTKLEIKR
3.89	–	huB-E29-34 (antibody, human IgG1, kappa, V domains shown, Humanized B-E29 variant; human IgG1 (G1m3) / kappa (Km3), produced in CHO cells; also called huVH21/huVL6) VH: EVRLMASGGGLVQPGGSLRLSCAASEFTFSNYAMSWVRQAPGKGLEWVATISRGGDYTYYPESVKGRFTISRDNSKNTLYLQMNSLRAEDTAVYYCARRVSFITGGYAMDYWGQGTLVTVSS VL: DVVMTQSPLSLPVTLGQPASISCRSSQSIVDITGNTYLEWFQQRPGQSPRRLIYKVFNRFSGVPDRFSGSGSGTDFTLKISRVEAEDVGVYYCFQESFVPYTFGQGTKLEIKR
3.87	–	huB-E29-22 (antibody, human IgG1, kappa, V domains shown, Humanized B-E29 variant; human IgG1 (G1m3) / kappa (Km3), produced in CHO cells; also called huVH16/huVL6) VH: EVQLVESGGGLVQPGGSLRLSCAASEFTFSNYAMSWVRQAPGKGLEWVATISRGGDYTYYPDSVKGRFTISRDNSKNTLYLQMNSLRAEDTAVYYCARRVSFITGGYAFDYWGQGTLVTVSS VL: DVVMTQSPLSLPVTLGQPASISCRSSQSIVDITGNTYLEWFQQRPGQSPRRLIYKVFNRFSGVPDRFSGSGSGTDFTLKISRVEAEDVGVYYCFQESFVPYTFGQGTKLEIKR
1.47	0.453	huB-E29-5 (antibody, human IgG1, kappa, V domains shown, Humanized B-E29 variant; human IgG1 (G1m3) / kappa (Km3), produced in CHO cells; also called huVH1/huVL3) VH: EVRLMASGGGLVQPGGSLRLSCAASEFTFSNYAMSWVRQAPGKGLEWVATISRGGDYTYYPDSVKGRFTISRDNSKNTLYLQMNSLRAEDTAVYYCARRVSMITGGWAMDYWGQGTLVTVSS VL: DVVMTQSPLSLPVTLGQPASISCRSSQSIVDITGNTYLEWYQQRPGQSPRRLIYKVFNRFSGVPDRFSGSGSGTDFTLKISRVEAEDVGVYYCFQDSFVPYTFGQGTKLEIKR
0.84	0.433	huB-E29-7 (antibody, human IgG1, kappa, V domains shown, Humanized B-E29 variant; human IgG1 (G1m3) / kappa (Km3), produced in CHO cells; also called huVH5/huVL1) VH: EVRLMASGGGLVQPGGSLRLSCAASEFTFSNYAMSWVRQAPGKGLEWVATISRGGDYTYYPESVKGRFTISRDNSKNTLYLQMNSLRAEDTAVYYCARRVSFITGGWAMDYWGQGTLVTVSS VL: DVVMTQSPLSLPVTLGQPASISCRSSQSIVDITGNTYLEWYQQRPGQSPRLLIYKVFNRFSGVPDRFSGSGSGTDFTLKISRVEAEDVGVYYCFQDSFVPYTFGQGTKLEIKR
